# Test results: the supplement of paper PMC5998384
# Tests used:
# HeLa Kyoto [1] = experiment: solubility in G1/S (NP-40 vs SDS abundance) (log2 ratio); higher = more soluble; conditions: cell cycle stage: G1/S
# HeLa Kyoto [2] = experiment: solubility change mitosis vs G1/S (difference of NP-40 vs SDS log2 ratios) (log2 ratio difference); higher = more soluble in mitosis
# HeLa Kyoto [3] = experiment: thermal stability score vs G1/S (z-score of summed log2 fold changes over temperatures); higher = more thermally stable than in G1/S
# [4] = cell cycle stage: early G1 (4.5 h after nocodazole release)
# 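For solubility change mitosis vs G1/S (difference of NP-40 vs SDS log2 ratios) in this document: synchronized HeLa Kyoto cells (double thymidine block for G1/S, nocodazole release for mitosis), protein amounts in NP-40 versus SDS lysates quantified by mass spectrometry, three biological replicates.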
# 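For solubility in G1/S (NP-40 vs SDS abundance) in this document: HeLa Kyoto cells arrested at G1/S by double thymidine block, proteins quantified by TMT10plex mass spectrometry in mild NP-40 versus SDS extracts, three biological replicates.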
# 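For thermal stability score vs G1/S (z-score of summed log2 fold changes over temperatures) in this document: synchronized HeLa Kyoto cells, proteins quantified by TMT10plex mass spectrometry, three biological replicates, mitosis taken 0.5 h after nocodazole release, G1/S directly after double thymidine block.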
Sequence,solubility in G1/S (log2) (HeLa Kyoto [1]),solubility change mitosis (log2) (HeLa Kyoto [2]),thermal stability score (HeLa Kyoto [3]; [4]),thermal stability score (HeLa Kyoto [3]; cell cycle stage: mitosis)
MFHCIPLWRCNRHVESIDKRHCSLVYVPEEIYRYARSLEELLLDANQLRELPEQFFQLVKLRKLGLSDNEIQRLPPEIANFMQLVELDVSRNEIPEIPESISFCKALQVADFSGNPLTRLPESFPELQNLTCLSVNDISLQSLPENIGNLYNLASLELRENLLTYLPDSLTQLRRLEELDLGNNEIYNLPESIGALLHLKDLWLDGNQLSELPQEIGNLKNLLCLDVSENRLERLPEEISGLTSLTDLVISQNLLETIPDGIGKLKKLSILKVDQNRLTQLPEAVGECESLTELVLTENQLLTLPKSIGKLKKLSNLNADRNKLVSLPKEIGGCCSLTVFCVRDNRLTRIPAEVSQATELHVLDVAGNRLLHLPLSLTALKLKALWLSDNQSQPLLTFQTDTDYTTGEKILTCVLLPQLPSEPTCQENLPRCGALENLVNDVSDEAWNERAVNRVSAIRFVEDEKDEEDNETRTLLRRATPHPGELKHMKKTVENLRNDMNAAKGLDSNKNEVNHAIDRVTTSV [LRRC1],-0.0636,-0.136,-0.136,-0.881
MIDSVKLRRDSAADFFSHYEYLCALQNSVPLPAVRACLREGVLDFNADRLRGVDWAPLLSTLKINKDLPLVSIKSFFQPWLGDTGSDMNKFCRSRVPAIRYKDVTFQLCKALKGCLSISSVLKNLELNGLILRERDLTILAKGLNKSASLVHLSLANCPIGDGGLEIICQGIKSSITLKTVNFTGCNLTWQGADHMAKILKYQTMRRHEETWAESLRYRRPDLDCMAGLRRITLNCNTLIGDLGACAFADSLSEDLWLRALDLQQCGLTNEGAKALLEALETNTTLVVLDIRKNPLIDHSMMKAVIKKVLQNGRSAKSEYQWITSPSVKEPSKTAKQKRRTIILGSGHKGKATIRIGLATKKPVSSGRKHSLGKEYYAPAPLPPGVSGFLPWRTAERAKRHRGFPLIKTRDICNQLQQPGFPVTVTVESPSSSEVEEVDDSSESVHEVPEKTSIEQEALQEKLEECLKQLKEERVIRLKVDKRVSELEHENAQLRNINFSLSEALHAQSLTNMILDDEGVLGSIENSFQKFHAFLDLLKDAGLGQLATMAGIDQSDFQLLGHPQMTSTVSNPPKEEKKALEDEKPEPKQNALGQMQNIQFQKITGDARIPLPLDSFPVPVSTPEGLGTSSNNLGVPATEQRQESFEGFIARMCSPSPDATSGTGSQRKEEELSRNSRSSSEKKTKTESH [CEP78],0.0898,0.821,2.82,3.49
MKDYDELLKYYELHETIGTGGFAKVKLACHILTGEMVAIKIMDKNTLGSDLPRIKTEIEALKNLRHQHICQLYHVLETANKIFMVLEYCPGGELFDYIISQDRLSEEETRVVFRQIVSAVAYVHSQGYAHRDLKPENLLFDEYHKLKLIDFGLCAKPKGNKDYHLQTCCGSLAYAAPELIQGKSYLGSEADVWSMGILLYVLMCGFLPFDDDNVMALYKKIMRGKYDVPKWLSPSSILLLQQMLQVDPKKRISMKNLLNHPWIMQDYNYPVEWQSKNPFIHLDDDCVTELSVHHRNNRQTMEDLISLWQYDHLTATYLLLLAKKARGKPVRLRLSSFSCGQASATPFTDIKSNNWSLEDVTASDKNYVAGLIDYDWCEDDLSTGAATPRTSQFTKYWTESNGVESKSLTPALCRTPANKLKNKENVYTPKSAVKNEEYFMFPEPKTPVNKNQHKREILTTPNRYTTPSKARNQCLKETPIKIPVNSTGTDKLMTGVISPERRCRSVELDLNQAHMEETPKRKGAKVFGSLERGLDKVITVLTRSKRKGSARDGPRRLKLHYNVTTTRLVNPDQLLNEIMSILPKKHVDFVQKGYTLKCQTQSDFGKVTMQFELEVCQLQKPDVVGIRRQRLKGDAWVYKRLVEDILSSCKV [MELK],-0.42,0.0602,-0.242,0.0849
MKEEAFLRRRFSLCPPSSTPQKVDPRKLTRNLLLSGDNELYPLSPGKDMEPNGPSLPRDEGPPTPSSATKVPPAEYRLCNGSDKECVSPTARVTKKETLKAQKENYRQEKKRATRQLLSALTDPSVVIMADSLKIRGTLKSWTKLWCVLKPGVLLIYKTPKVGQWVGTVLLHCCELIERPSKKDGFCFKLFHPLDQSVWAVKGPKGESVGSITQPLPSSYLIFRAASESDGRCWLDALELALRCSSLLRLGTCKPGRDGEPGTSPDASPSSLCGLPASATVHPDQDLFPLNGSSLENDAFSDKSERENPEESDTETQDHSRKTESGSDQSETPGAPVRRGTTYVEQVQEELGELGEASQVETVSEENKSLMWTLLKQLRPGMDLSRVVLPTFVLEPRSFLNKLSDYYYHADLLSRAAVEEDAYSRMKLVLRWYLSGFYKKPKGIKKPYNPILGETFRCCWFHPQTDSRTFYIAEQVSHHPPVSAFHVSNRKDGFCISGSITAKSRFYGNSLSALLDGKATLTFLNRAEDYTLTMPYAHCKGILYGTMTLELGGKVTIECAKNNFQAQLEFKLKPFFGGSTSINQISGKITSGEEVLASLSGHWDRDVFIKEEGSGSSALFWTPSGEVRRQRLRQHTVPLEEQTELESERLWQHVTRAISKGDQHRATQEKFALEEAQRQRARERQESLMPWKPQLFHLDPITQEWHYRYEDHSPWDPLKDIAQFEQDGILRTLQQEAVARQTTFLGSPGPRHERSGPDQRLRKASDQPSGHSQATESSGSTPESCPELSDEEQDGDFVPGGESPCPRCRKEARRLQALHEAILSIREAQQELHRHLSAMLSSTARAAQAPTPGLLQSPRSWFLLCVFLACQLFINHILK [OSBPL5],-0.0107,0.12,0.206,0.353
MKGFKLSCTASNSNRSTPACSPILRKRSRSPTPQNQDGDTMVEKGSDHSSDKSPSTPEQGVQRSCSSQSGRSGGKNSKKSQSWYNVLSPTYKQRNEDFRKLFKQLPDTERLIVDYSCALQRDILLQGRLYLSENWICFYSNIFRWETLLTVRLKDICSMTKEKTARLIPNAIQVCTDSEKHFFTSFGARDRTYMMMFRLWQNALLEKPLCPKELWHFVHQCYGNELGLTSDDEDYVPPDDDFNTMGYCEEIPVEENEVNDSSSKSSIETKPDASPQLPKKSITNSTLTSTGSSEAPVSFDGLPLEEEALEGDGSLEKELAIDNIMGEKIEMIAPVNSPSLDFNDNEDIPTELSDSSDTHDEGEVQAFYEDLSGRQYVNEVFNFSVDKLYDLLFTNSPFQRDFMEQRRFSDIIFHPWKKEENGNQSRVILYTITLTNPLAPKTATVRETQTMYKASQESECYVIDAEVLTHDVPYHDYFYTINRYTLTRVARNKSRLRVSTELRYRKQPWGLVKTFIEKNFWSGLEDYFRHLESELAKTESTYLAEMHRQSPKEKASKTTTVRRRKRPHAHLRVPHLEEVMSPVTTPTDEDVGHRIKHVAGSTQTRHIPEDTPNGFHLQSVSKLLLVISCVICFSLVLLVILNMMLFYKLWMLEYTTQTLTAWQGLRLQERLPQSQTEWAQLLESQQKYHDTELQKWREIIKSSVMLLDQMKDSLINLQNGIRSRDYTSESEEKRNRYH [GRAMD1B],-0.0228,0.151,-0.0752,-0.742
MLLPWATSAPGLAWGPLVLGLFGLLAASQPQAVPPYASENQTCRDQEKEYYEPQHRICCSRCPPGTYVSAKCSRIRDTVCATCAENSYNEHWNYLTICQLCRPCDPVMGLEEIAPCTSKRKTQCRCQPGMFCAAWALECTHCELLSDCPPGTEAELKDEVGKGNNHCVPCKAGHFQNTSSPSARCQPHTRCENQGLVEAAPGTAQSDTTCKNPLEPLPPEMSGTMLMLAVLLPLAFFLLLATVFSCIWKSHPSLCRKLGSLLKRRPQGEGPNPVAGSWEPPKAHPYFPDLVQPLLPISGDVSPVSTGLPAAPVLEAGVPQQQSPLDLTREPQLEPGEQSQVAHGTNGIHVTGGSMTITGNIYIYNGPVLGGPPGPGDLPATPEPPYPIPEEGDPGPPGLSTPHQEDGKAWHLAETEHCGATPSNRGPRNQFITHD [LTBR],-0.758,0.703,-2.45,-1.87
MMPSRTNLATGIPSSKVKYSRLSSTDDGYIDLQFKKTPPKIPYKAIALATVLFLIGAFLIIIGSLLLSGYISKGGADRAVPVLIIGILVFLPGFYHLRIAYYASKGYRGYSYDDIPDFDD [TMEM230],0.0716,-0.0463,-1.72,-2.3
MNKGWLELESDPGLFTLLVEDFGVKGVQVEEIYDLQSKCQGPVYGFIFLFKWIEERRSRRKVSTLVDDTSVIDDDIVNNMFFAHQLIPNSCATHALLSVLLNCSSVDLGPTLSRMKDFTKGFSPESKGYAIGNAPELAKAHNSHARPEPRHLPEKQNGLSAVRTMEAFHFVSYVPITGRLFELDGLKVYPIDHGPWGEDEEWTDKARRVIMERIGLATAGEPYHDIRFNLMAVVPDRRIKYEARLHVLKVNRQTVLEALQQLIRVTQPELIQTHKSQESQLPEESKSASNKSPLVLEANRAPAASEGNHTDGAEEAAGSCAQAPSHSPPNKPKLVVKPPGSSLNGVHPNPTPIVQRLPAFLDNHNYAKSPMQEEEDLAAGVGRSRVPVRPPQQYSDDEDDYEDDEEDDVQNTNSALRYKGKGTGKPGALSGSADGQLSVLQPNTINVLAEKLKESQKDLSIPLSIKTSSGAGSPAVAVPTHSQPSPTPSNESTDTASEIGSAFNSPLRSPIRSANPTRPSSPVTSHISKVLFGEDDSLLRVDCIRYNRAVRDLGPVISTGLLHLAEDGVLSPLALTEGGKGSSPSIRPIQGSQGSSSPVEKEVVEATDSREKTGMVRPGEPLSGEKYSPKELLALLKCVEAEIANYEACLKEEVEKRKKFKIDDQRRTHNYDEFICTFISMLAQEGMLANLVEQNISVRRRQGVSIGRLHKQRKPDRRKRSRPYKAKRQ [BAP1],0.152,-0.138,0.51,0.853
MNNKFDALKDDDSGDHDQNEENSTQKDGEKEKTERDKNQSSSKRKAVVPGPAEHPLQYNYTFWYSRRTPGRPTSSQSYEQNIKQIGTFASVEQFWRFYSHMVRPGDLTGHSDFHLFKEGIKPMWEDDANKNGGKWIIRLRKGLASRCWENLILAMLGEQFMVGEEICGAVVSVRFQEDIISIWNKTASDQATTARIRDTLRRVLNLPPNTIMEYKTHTDSIKMPGRLGPQRLLFQNLWKPRLNVP [EIF4E2],0.114,0.000807,-1.02,-0.941
MPSEGRCWETLKALRSSDKGRLCYYRDWLLRREDVLEECMSLPKLSSYSGWVVEHVLPHMQENQPLSETSPSSTSASALDQPSFVPKSPDASSAFSPASPATPNGTKGKDESQHTESMVLQSSRGIKVEGCVRMYELVHRMKGTEGLRLWQEEQERKVQALSEMASEQLKRFDEWKELKQHKEFQDLREVMEKSSREALGHQEKLKAEHRHRAKILNLKLREAEQQRVKQAEQERLRKEEGQIRLRALYALQEEMLQLSQQLDASEQHKALLKVDLAAFQTRGNQLCSLISGIIRASSESSYPTAESQAEAERALREMRDLLMNLGQEITRACEDKRRQDEEEAQVKLQEAQMQQGPEAHKEPPAPSQGPGGKQNEDLQVKVQDITMQWYQQLQDASMQCVLTFEGLTNSKDSQAKKIKMDLQKAATIPVSQISTIAGSKLKEIFDKIHSLLSGKPVQSGGRSVSVTLNPQGLDFVQYKLAEKFVKQGEEEVASHHEAAFPIAVVASGIWELHPRVGDLILAHLHKKCPYSVPFYPTFKEGMALEDYQRMLGYQVKDSKVEQQDNFLKRMSGMIRLYAAIIQLRWPYGNRQEIHPHGLNHGWRWLAQILNMEPLSDVTATLLFDFLEVCGNALMKQYQVQFWKMLILIKEDYFPRIEAITSSGQMGSFIRLKQFLEKCLQHKDIPVPKGFLTSSFWRS [GLE1],-0.966,0.773,0.568,0.433
